Experimental data as given in the supplement of paper PMC10567573.

B1: ZNF263 (parent)
chain: EKPYKCPECGEIFAHSSNLLRHQR
B2: GFOD1 (parent)
chain: EEAEELAKEMSVPFYTSRIDEVLL

Variants of: B1
Assay: protein stability index of a GFP-peptide fusion (GPS, HEK-293T) (PSI 1-6); higher = more stable
Settings: c terminus: a fixed tail appended
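Also: lentivirally expressed fusions sorted by FACS into six bins by GFP to DsRed ratio, PSI derived from sequencing read proportions per bin multiplied by bin number.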

Protein stability index of substitutions, site by site:
Q23: H 2.34; F 2.35; L 2.86; V 1.82; M 3.02; N 2.88; C 2.41; E 2.48; W 2.42; A 2.21; K 2.9; P 2.11; D 1.82; G 1.82; I 3.16; T 2.25; Y 2.07
R21: S 2.89; H 3.35; N 3.29; W 3.43; T 4.27; L 2.82; Y 3.36; F 3.04; P 3.43; D 4.24; C 3.98; A 3.84; E 4.38; G 2.01; K 3.51; V 2.85; M 3.58; I 3.75
H22: A 2.88; T 1.43; M 2.64; D 3.17; S 1.89; G 1.25; R 3.03; K 2.16; P 1.35; W 1.23; I 1.34; Q 1.54; E 2.55; L 1.91; N 2.35; F 1.66; C 2.43
N18: T 2.76; M 2.82; Y 3.37; W 2.06; F 2.54; G 3.05; E 4.7; P 2.55; D 4.05; C 3.75; S 4.02; A 4.13; L 2.67; I 2.37; H 4.44; V 4.54
L19: H 3.63; P 2.18; V 2.92; A 1.84; T 2.16; F 2.68; K 2.73; C 4.49; M 2.38; S 2.61; E 1.91; Y 2.54; D 2.78; I 1.8; Q 1.78; N 1.64
L20: K 2.62; Y 2.44; P 1.84; N 1.59; T 2.66; H 3.79; M 2.6; F 1.78; Q 2.96; V 1.87; D 3.29; G 2.29; I 2.04; A 1.79; R 2.59; C 4.11; E 2.75
R24: L 4.29; V 3.54; K 3.25; G 3.7; M 3.6; I 3.25; W 2.74; N 3.92; S 4.47; Y 2.68; Q 3.74; F 3.32; D 3.96; P 3.44; H 4.43; T 3.24; E 4.38; C 5.28; A 4.17
S17: Y 2.47

Variants of: B2
Assay: as above
Settings: c terminus: a fixed tail appended

Protein stability index of substitutions, site by site:
K8: R 4.04; D 3.94; I 2.76; E 4.17; V 2.85; A 3.66; L 2.46; G 4.1; F 2.25; T 3.89; C 2.9; S 2.89; H 3.66; P 3.59; Y 2.86; M 3.29; N 3.39
S11: P 3.87; N 2.23; Y 2.86; D 4.5; T 4.12; I 3.29; L 4.46; H 4.04; R 3.02; M 3.67; Q 4.04; F 2.72; G 2.97; W 2.76; K 3.17; C 3.36; A 3.51; E 4.74
V12: T 4.2; P 4.14; K 3.99; E 4.38; A 3.2; S 4.46; D 3.47; L 3.67; Y 4.22; G 4.26; Q 3.91; F 2.91; R 3.89; C 3.71; M 4.31; I 3.6; N 4.56; H 3.03
A3: C 2.56; K 4.38; E 4.32; V 3.32; H 3.84; L 3.11; N 4.03; G 3.95; Y 3.38
E1: P 3.51; T 3.56; S 4.24; G 2.43; R 3.33; K 4.03; N 2.83; H 4.47; Y 2.98; M 3.45; A 3.79; V 2.95; C 3.08; L 3.75; I 2.46
E9: R 2.7; Q 3.17; F 3.12; C 2.55; K 2.66; H 3.2; P 3.01; L 2.16; N 3.71; Y 2.94; I 2.15; W 2.62; V 3.1; M 3.03; D 3.93; S 2.92
P13: T 4.03; S 3.47; M 3.32; Q 3.47; R 4.11; N 3.78; I 2.03; D 3.96; L 2.57; K 3.19; C 3.27; G 4.02; E 3.97; H 2.54
A7: E 3.87; M 3.14; S 3.6; P 4.5; F 2.99; T 3.79; W 2.39; R 3.62; L 2.93; V 4.01; Y 3.07; Q 4.06; N 4.02; H 4.2; K 3.32; G 4; C 4.06; I 2.77; D 4.62
M10: C 4.53; T 4.03; K 4.03; F 3.62; S 4.12; W 4.5; Y 3.63; D 4.7; R 3.81; H 4.53; Q 4.26; A 4.41; V 3.84; I 3.57; P 4.5; G 4.22; L 2.62
E4: Y 2.64; Q 3.9; W 2.77; N 3.92; R 3.52; C 2.73; G 3.4; H 3.4; M 4; A 3.45; F 2.98; S 3.93; L 2.9; D 3.97; T 3.86; I 3.51; P 3.6; K 3.46
E2: R 2.94; G 3.39; H 3.06; W 3.66; D 3.72; A 3.66; I 2.18; L 2.76; M 2.53; Y 2.39; T 3.2; F 2.1; N 4; S 3.41; C 3.06; V 3.64
L6: A 4.38; I 3.73; R 4.2; W 3.75; P 4.26; Q 3.7; H 4.48; K 4.54; T 4.46; F 3.93; E 4.67; V 3.94; S 4.19; M 4.01; N 4.51; D 4.99; Y 3.95; C 4.38
E5: V 2.58; P 3.96; G 4.04; S 3.13; T 3.48; W 2.35; H 3.6; C 3.79; D 3.93; A 3.45; I 2.57; M 2.95; K 4.14; N 3.23; F 2.94; Y 3.98; R 3.56; L 4.05
